Source: patent US20110091386A1 (GENE TECHNO SCIENCE, published 2011)
Values belong to the binder of their own block, whether it stands above or below them.

How the values were obtained:
[1] = molecular target: T1, hOPN5 peptide CVDTYDGRGDSVVYGLRS conjugated to bovine serum albumin (human, N-terminal Cys coupled to BSA (via EMCS in section 6.2)); assay: ELISA, hOPN5-BSA coated at 1 ug/ml, HRP anti-human gamma chain, A405
T1 construct: also called hOPN5-BSA; hOPN-BSA
T1 peptide: CVDTYDGRGDSVVYGLRS
Protocol: The affinity of humanized 35B6 IgG1/κ was compared to that of chimeric 35B6 IgG1/κ by ELISA. As an antigen, synthetic oligopeptide ([…] (SEQ ID NO:79) conjugated to bovine serum albumin (hOPN5-BSA) was used. In a typical experiment, an ELISA plate was coated with 100 μl/well of 1 μg/ml hOPN-BSA in PBS overnight at 4° C., washed with Wash Buffer, and blocked with 300 μl/well of Blocking Buffer for 1 hr at room temperature. After washing with Wash Buffer, 100 μl/well of samples appropriately diluted in ELISA Buffer were applied to the ELISA plate. After incubating the ELISA plate overnight at 4° C. and washing with Wash Buffer, bound antibodies were detected using 100 μl/well of 1/2,000-diluted HRP-conjugated goat anti-human γ chain polyclonal antibody (SouthernBiotech). After incubating for 1 hr at room temperature and washing with Wash Buffer, color development was performed by adding 100 μl/well of ABTS substrate and stopped with 100 μl/well of 2% oxalic acid. Absorbance was read at 405 nm. As shown in FIG. 41A-41B, the binding of humanized 35B6 IgG1/κ to hOPN5-BSA was similar to (FIG. 41A) or indistinguishable from (FIG. 41B) that of chimeric 35B6 IgG1/κ.

peptide CGRGDS [2] = molecular target: T2, peptide CGRGDS (human and murine, N-terminal Cys coupled to BSA via EMCS); assay: ELISA, BSA-coupled peptide coated at 10 ug/ml
T2 construct: Synthetic peptide, BSA conjugate on the ELISA plate
T2 peptide: CGRGDS
Excerpt: (§1) Peptides of amino acid sequence of […] (mOPN1) (SEQ ID NO:73), […] (mOPN5) (SEQ ID NO:71), […] (SEQ ID NO:74), CPNGRGD (SEQ ID NO:75), […] (SEQ ID NO: 76) […] (SEQ ID NO: 77), […] (SEQ ID NO:78) and […] (SEQ ID NO:72) which include murine OPN derived partial peptide, a peptide of amino acid sequence […] (SEQ ID NO:79) and […] (SEQ ID NO:80) which include human OPN derived partial peptide, and a peptide of amino acid sequence CGRGDS (SEQ ID NO:81) which include common peptide sequence of human OPN and murine OPN were coupled to BSA (Sigma corporation) via EMCS (Dojin) and used for ELISA.
(§2) A 96 well plate was immobilized with peptides (10 μg/ml) or proteins (5 μg/ml) by cultivating at 37° C. for an hour, blocked with 0.1% BSA/PBS/0.05% NaN₃ solution, and then reacted with various concentrations of antibodies at 37° C. for an hour. Next, the plate was reacted with HRP labeled anti-murine IgG antibody (Jackson ImmunoResearch Laboratories, Inc.) as secondary antibody at 37° C. for 30 minutes, added OPD as chromogen, added 1N H₂SO₄ to stop the reaction, and then detected absorbance at 490 nm.

peptide CVDVPNGRGDS [3] = molecular target: T3, peptide CVDVPNGRGDS (murine, N-terminal Cys coupled to BSA via EMCS); assay: ELISA, BSA-coupled peptide coated at 10 ug/ml
T3 construct: Synthetic peptide, BSA conjugate on the ELISA plate
T3 peptide: CVDVPNGRGDS
Excerpt: as §1, §2

peptide CPNGRGD [4] = molecular target: T4, peptide CPNGRGD (murine, N-terminal Cys coupled to BSA via EMCS); assay: ELISA, BSA-coupled peptide coated at 10 ug/ml
T4 construct: Synthetic peptide, BSA conjugate on the ELISA plate
T4 peptide: CPNGRGD
Excerpt: as §1, §2

human osteopontin = molecular target: T5, human osteopontin (human, UniProt P10451 17-314); assay: ELISA, protein coated at 5 ug/ml, HRP anti-murine IgG, A490
T5 construct: mature; Secreted recombinant protein; also called hOPN; human OPN
Protocol: as §2, with “Binding ability of the monoclonal antibodies 33E10 and 35B6 to ECM proteins was detected by ELISA using 96 well plate immobilized with hOPN, mOPN, FN, VN or laminin obtained above. A 96” for “A 96”

murine osteopontin = molecular target: T6, murine osteopontin (murine, UniProt P10923 17-294); assay: as above
T6 construct: mature; Secreted recombinant protein; also called mOPN; murine OPN
Protocol: as §2, with “Binding ability of the monoclonal antibodies 33E10 and 35B6 to ECM proteins was detected by ELISA using 96 well plate immobilized with hOPN, mOPN, FN, VN or laminin obtained above. A 96” for “A 96”

[5] = molecular target: T1, hOPN5 peptide CVDTYDGRGDSVVYGLRS …; assay: ELISA, BSA-coupled peptide coated at 10 ug/ml, HRP anti-murine IgG, A490
peptide CGRGDSLAYGLR = molecular target: T7, peptide CGRGDSLAYGLR (murine, N-terminal Cys coupled to BSA via EMCS); assay: as above
T7 construct: Synthetic peptide, BSA conjugate on the ELISA plate
T7 peptide: CGRGDSLAYGLR

peptide CGDSLAYG = molecular target: T8, peptide CGDSLAYG (murine, N-terminal Cys coupled to BSA via EMCS); assay: as above
T8 construct: Synthetic peptide, BSA conjugate on the ELISA plate
T8 peptide: CGDSLAYG

peptide CGDSLAYGLR = molecular target: T9, peptide CGDSLAYGLR (murine, N-terminal Cys coupled to BSA via EMCS); assay: as above
T9 peptide: CGDSLAYGLR

[6] = molecular target: T10, mOPN5 peptide CVDVPNGRGDSLAYGLR (murine, N-terminal Cys coupled to BSA via EMCS (ELISA of section 6.2)); assay: as above
T10 construct: BSA conjugate in section 6.2; 'antigen peptide solid phase' in the hybridoma screen of section 6.1; also called antigen peptide
T10 peptide: CVDVPNGRGDSLAYGLR

peptide CSLAYGLR = molecular target: T11, peptide CSLAYGLR (murine, N-terminal Cys coupled to BSA via EMCS); assay: ELISA, BSA-coupled peptide coated at 10 ug/ml
T11 construct: Synthetic peptide, BSA conjugate on the ELISA plate
T11 peptide: CSLAYGLR
Excerpt: as §1, §2

peptide CSVVYGLR = molecular target: T12, peptide CSVVYGLR (human, N-terminal Cys coupled to BSA via EMCS); assay: ELISA, BSA-coupled peptide coated at 10 ug/ml
T12 construct: Synthetic peptide, BSA conjugate on the ELISA plate
T12 peptide: CSVVYGLR
Excerpt: as §1, §2

human vitronectin = molecular target: T13, human vitronectin (human, UniProt P04004 20-478); assay: ELISA, protein coated at 5 ug/ml, HRP anti-murine IgG, A490
T13 construct: Bought protein; also called VN
Protocol: as §2, with “Binding ability of the monoclonal antibodies 33E10 and 35B6 to ECM proteins was detected by ELISA using 96 well plate immobilized with hOPN, mOPN, FN, VN or laminin obtained above. A 96” for “A 96”

peptide CGRGDS [7] = molecular target: T2, peptide CGRGDS; assay: ELISA, BSA-coupled peptide coated at 10 ug/ml, HRP anti-murine IgG, A490
peptide CVDVPNGRGDS [8] = molecular target: T3, peptide CVDVPNGRGDS; assay: as above
peptide CPNGRGD [9] = molecular target: T4, peptide CPNGRGD; assay: as above

T6 sequence (P10923 17-294): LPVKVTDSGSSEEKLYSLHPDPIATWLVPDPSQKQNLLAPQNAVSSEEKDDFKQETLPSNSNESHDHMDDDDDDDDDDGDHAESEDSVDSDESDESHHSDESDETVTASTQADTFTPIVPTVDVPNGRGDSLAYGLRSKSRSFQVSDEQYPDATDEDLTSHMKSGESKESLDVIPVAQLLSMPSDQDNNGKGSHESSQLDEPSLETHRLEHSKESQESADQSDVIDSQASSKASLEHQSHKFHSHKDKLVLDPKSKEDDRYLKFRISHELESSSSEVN
T5 sequence (P10451 17-314): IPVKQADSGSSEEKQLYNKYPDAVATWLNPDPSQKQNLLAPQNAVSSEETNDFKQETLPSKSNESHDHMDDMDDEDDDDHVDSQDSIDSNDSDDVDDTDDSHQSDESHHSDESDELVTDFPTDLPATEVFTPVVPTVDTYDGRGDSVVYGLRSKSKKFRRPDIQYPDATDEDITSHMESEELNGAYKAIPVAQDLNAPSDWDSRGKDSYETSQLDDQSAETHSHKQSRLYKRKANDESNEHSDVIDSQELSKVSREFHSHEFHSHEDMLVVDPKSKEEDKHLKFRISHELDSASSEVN
T13 sequence (P04004 20-478 limits assumed): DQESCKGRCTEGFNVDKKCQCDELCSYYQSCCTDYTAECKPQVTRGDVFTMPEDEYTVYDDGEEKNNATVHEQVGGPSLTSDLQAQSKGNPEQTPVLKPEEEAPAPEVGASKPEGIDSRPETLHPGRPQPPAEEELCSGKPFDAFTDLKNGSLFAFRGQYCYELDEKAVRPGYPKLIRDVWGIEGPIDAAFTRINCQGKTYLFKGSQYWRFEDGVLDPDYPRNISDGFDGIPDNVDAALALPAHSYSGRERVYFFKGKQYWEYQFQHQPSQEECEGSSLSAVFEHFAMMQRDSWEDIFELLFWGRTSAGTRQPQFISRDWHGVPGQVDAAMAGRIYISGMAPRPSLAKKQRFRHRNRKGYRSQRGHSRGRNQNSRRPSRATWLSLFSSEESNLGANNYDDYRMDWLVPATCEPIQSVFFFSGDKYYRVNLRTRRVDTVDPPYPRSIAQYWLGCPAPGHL

B2: mouse anti-RGD monoclonal antibody 35B6 (FERM BP-10441) (antibody, mouse IgG1, V domains shown)
VH: QVQLQQPGTELVKPGASVKLSCKASGYTFTNYWMHWVKQRPGQGLEWIGNINPRNGDSNYNEKFRSKASLTVDKSSSTVYMQLSSLTSEDSAVYYCARGYFDVWGTGTTVTVSS
VL: DIKMTQSPSSMYASLGERVSITCKASQDINSYLSWFQQKSGKSPKTLIYRANRLVDGVPSRFSGSGSGQDFSLTISSLEYEDMGIYYCLQYDEFPFTFGSGTKLEIK
notes: Mouse IgG1 from hybridoma
binding result (peptide CGRGDS [2]): no binding
binding result (peptide CVDVPNGRGDS [3]): no binding
binding result (peptide CPNGRGD [4]): no binding
binding result (human osteopontin): binds
binding result (murine osteopontin): binds
binding result [5]: binds
binding result (peptide CGRGDSLAYGLR): binds
binding result (peptide CGDSLAYG): binds
binding result (peptide CGDSLAYGLR): binds
binding result [6]: binds

B3: chimeric 35B6 IgG1/kappa antibody (antibody, V domains shown)
VH: B2 VH
VL: B2 VL
notes: Tested as culture supernatant of transiently transfected HEK293 cells; also called Ch35B6
binding result [1]: binds

More lines, now with the values ahead:

binding result [1]: binds
B1: humanized 35B6 IgG1/kappa antibody (antibody, V domains shown)
VH: QVQLVQSGAEVKKPGASVKVSCKASGYTFTNYWMHWVRQAPGQGLEWIGNINPRNGDSNYNEKFRSKASLTVDKSTSTVYMELSSLRSEDTAVYYCARGYFDVWGQGTTVTVSS
VL: DIQMTQSPSSLSASVGDRVTITCKASQDINSYLSWFQQKPGKAPKTLIYRANRLVDGVPSKFSGSGSGQDFTLTISSLQPEDFATYYCLQYDEFPFTFGQGTKLEIK
notes: Tested as culture supernatant of transiently transfected HEK293 cells; also called Hu35B6

binding result (peptide CSLAYGLR): no binding
binding result (peptide CSVVYGLR): no binding
binding result (human osteopontin): binds
binding result (murine osteopontin): binds
binding result (human vitronectin): binds
binding result [5]: binds
binding result (peptide CGRGDS [7]): binds
binding result (peptide CVDVPNGRGDS [8]): binds
binding result (peptide CPNGRGD [9]): binds
binding result [6]: binds
B4: mouse anti-RGD monoclonal antibody 33E10 (FERM BP-10440) (antibody, mouse IgG1, V domains shown)
VH: EVKLVESGGGLVQPGGSLSLSCAASGFTFTDYYMIWVRQPPGKALEWLGFIRNKANGYTTEYSASVKGRFTISRDNSQSILYLQMNALRAEDSATYYCARGAYWGQGTLVTVSA
VL: DVLMTQTPLSLPVSLGDQASISCRSSQSIVHSNGNTYLEWYLQKPGQSPKLLIYRVSNRFSGVPDRFSGSGSGTDFTLKISRVEAEDLGVYYCFQGSFVPWTFGGGTKLEIK
notes: Mouse IgG1 from hybridoma, purified on an antigen peptide column
